Drawing on publication PMC8363725, “Mapping the biosynthetic pathway of a hybrid polyketide-nonribosomal peptide in a metazoan” (Nature Communications, 2021), this text covers Km and kcat for two molecules.

One series addresses T1, PKAL-1 (Caenorhabditis elegans, UniProt O02171).
T1 construct: PKAL-1 from C. elegans cDNA library in pET16b-KH01, C-terminal His tag, expressed in E. coli BL21(DE3), Ni resin and Superdex 200
T1 sequence (O02171 1-497): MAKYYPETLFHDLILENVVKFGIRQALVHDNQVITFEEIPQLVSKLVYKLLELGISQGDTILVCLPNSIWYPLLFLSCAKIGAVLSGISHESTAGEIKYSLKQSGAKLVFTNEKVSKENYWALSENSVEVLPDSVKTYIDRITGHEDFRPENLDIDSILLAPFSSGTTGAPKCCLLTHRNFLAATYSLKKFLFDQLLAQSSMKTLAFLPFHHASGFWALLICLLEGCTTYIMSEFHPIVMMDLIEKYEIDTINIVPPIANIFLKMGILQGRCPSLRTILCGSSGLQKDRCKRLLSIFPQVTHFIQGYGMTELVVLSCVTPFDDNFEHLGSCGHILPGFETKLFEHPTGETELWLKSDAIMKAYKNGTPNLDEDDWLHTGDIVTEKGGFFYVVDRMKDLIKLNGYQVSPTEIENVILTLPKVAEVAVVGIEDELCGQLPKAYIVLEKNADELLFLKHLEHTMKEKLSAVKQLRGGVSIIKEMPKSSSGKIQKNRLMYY
In words: enzyme-coupled continuous spectrophotometric assay (NADH). The settings on record: 4 mM ATP, 10 mM MgCl2, 100 mM hydroxylamine as acceptor, Tris pH 7.4, 22 °C; apparent. In kind it is biochemical.

Substrate in the series “purified protein”: CCCCCCCCCCCCCCCC(=O)O
In words: purified protein. The note with it: 4 mM ATP, 10 mM MgCl2, 100 mM hydroxylamine as acceptor, Tris pH 7.4, 22 °C, apparent.

Substrate in series [1]: CCCCCCCCCCCCCC(=O)O
In words: enzyme-coupled continuous spectrophotometric assay (NADH). Type of series: biochemical, Caenorhabditis elegans. The note with it: 4 mM ATP, 10 mM MgCl2, 100 mM hydroxylamine as acceptor, Tris pH 7.4, 22 °C, apparent.

Substrate in series [2]: CCCCCCCCCC(=O)O
Described as above. Type of series: biochemical, Caenorhabditis elegans. The settings on record: 4 mM ATP, 10 mM MgCl2, 100 mM hydroxylamine as acceptor, Tris pH 7.4, 22 °C, apparent.

Substrate in series [3]: CCCCCCCCCCCC(=O)O
The series is described as above. Type of series: biochemical, Caenorhabditis elegans. The settings on record: 4 mM ATP, 10 mM MgCl2, 100 mM hydroxylamine as acceptor, Tris pH 7.4, 22 °C, apparent.

As to `CCCCCCCC(=O)O` [C8], the Km result on PKAL-1 was “C12, which is in turn preferred over C10 and C8”.

B1: PKAL-1 (Caenorhabditis elegans) (protein)
chain: T1 sequence (O02171 1-497)
notes: PKAL-1 from C. elegans cDNA library in pET16b-KH01, C-terminal His tag, expressed in E. coli BL21(DE3), Ni resin and Superdex 200
Regarding B1, the Km is given as 8.7 ± 0.4 µM in “purified protein”, 21.8 ± 2.6 µM in series [1], 411.0 ± 20.2 µM in series [2] and 84.6 ± 17.5 µM in series [3]. Further, the kcat in the series “purified protein” is 0.0127 ± 0.000484 s⁻¹; in series [1], 0.03 ± 0.00223 s⁻¹; in series [2], 0.0437 ± 0.00284 s⁻¹; in series [3], 0.00943 ± 0.00211 s⁻¹.

For orientation: Km means the concentration of substrate that gives half-maximal velocity. One may read the kcat as the number of substrate molecules converted per active site and unit of time at saturation.
